The values below are quoted from earlier work in paper PMC5310643.

As usually defined, the Kd is the concentration at which binding is half-saturated.

The target of the data set is κI light chain variable domain (germline) VL (Homo sapiens) (UniProt P01594). As to the kind of experiment: NMR diffusion.

As for “κI light chain variable domain (germline) VL (from UniProt P01594)”, the Kd is 217 µM.
